The values below come from paper PMC3159028 (Journal of molecular biology, 2011).

One may read the stoichiometry N as the number of molecules, sites or subunits per partner or assembly.

Read-outs that look alike come from different tables or passages of the source.

Data set [1] deals with the molecule itself. Nature of the data set: SEC. (In gel filtration, larger molecules generally elute earlier.)
Data set [2] deals with the molecule itself. Nature of the data set: SEC. The source holds these as a separate data set.

B1: human NudC, full length (NudC^1–331) (natural protein)
chain: not shown
Turning to B1, in “SEC [1]”, the “stoichiometry N” value amounted to 2.

B2: hNudC^1–141, N-terminal fragment of human NudC (dimerization domain) (domain or fragment)
chain: not shown
Take B2: the “stoichiometry N” value in the data set “SEC [2]” worked out at 2.

B3: human NudC-like protein (NudCL), full length (natural protein, UniProt Q8IVD9 1-361, looked up)
chain: METGAAELYDQALLGILQHVGNVQDFLRVLFGFLYRKTDFYRLLRHPSDRMGFPPGAAQALVLQVFKTFDHMARQDDEKRRQELEEKIRRKEEEEAKTVSAAAAEKEPVPVPVQEIEIDSTTELDGHQEVEKVQPPGPVKEMAHGSQEAEAPGAVAGAAEVPREPPILPRIQEQFQKNPDSYNGAVRENYTWSQDYTDLEVRVPVPKHVVKGKQVSVALSSSSIRVAMLEENGERVLMEGKLTHKINTESSLWSLEPGKCVLVNLSKVGEYWWNAILEGEEPIDIDKINKERSMATVDEEEQAVLDRLTFDYHQKLQGKPQSHELKVHEMLKKGWDAEGSPFRGQRFDPAMFNISPGAVQF
Regarding B3, in “SEC [1]”, the “stoichiometry N” value worked out at 2.

B4: mouse NudC-like 2 protein (NudCL2), full length (natural protein, UniProt Q9CQ48 1-157, looked up)
chain: MSAPFEERSGVVPCGTPWGQWYQTLEEVFIEVQVPPGTRAQDIQCGLQSRHVALAVGGREILKGKLFDSTIADEGTWTLEDRKMVRIVLTKTKRDAANCWTSLLESEYAADPWVQDQMQRKLTLERFQKENPGFDFSGAEISGNYTKGGPDFSNLEK
Take B4: the “stoichiometry N” value in the data set “SEC [1]” came to 2.
